Assay [1] concerns the target T1, human complement factor 1q (human, UniProt P02745 23-245; P02746 28-253; P02747 29-245).
T1 construct: Complement C1q subcomponent subunit A, human; Complement C1q subcomponent subunit B, human; Complement C1q subcomponent subunit C, human; also called C1q; complement C1q; source: bought: Merck Chemicals GmbH; copies: 6 + 6 + 6
Kind of assay: real-time fluorescence binding (LigandTracer); human C1q (60 ug/ml) spotted on nitrocellulose; CMFDA-labelled THP-1 microvesicles preincubated 2 h at 37 °C with pCRP or mCRP (100 ug/ml) and added at 20 ug/ml; the read-out is the fluorescence of the microvesicles that carry the CRP. Conditions: both partners purified.

Assay [2] concerns the target T2, Alexa Fluor 488-labelled C1q (human, UniProt P02745 23-245; P02746 28-253; P02747 29-245, Alexa Fluor 488 (site and chain not stated) | Alexa Fluor 488 (site and chain not stated) | Alexa Fluor 488 (site and chain not stated)).
T2 construct: Complement C1q subcomponent subunit A, human; Complement C1q subcomponent subunit B, human; Complement C1q subcomponent subunit C, human; Same protein as m3 with a fluorescent label; source: labelled with Alexa Fluor 488; copies: 6 + 6 + 6
Kind of assay: real-time fluorescence binding (LigandTracer); THP-1 microvesicles (0.5 mg/ml) spotted on nitrocellulose, blocked with 5% BSA; Alexa Fluor 488-labelled C1q added with or without pCRP. The settings on record: both partners purified.

T2 sequence (P02745 23-245, chain 1 of 3): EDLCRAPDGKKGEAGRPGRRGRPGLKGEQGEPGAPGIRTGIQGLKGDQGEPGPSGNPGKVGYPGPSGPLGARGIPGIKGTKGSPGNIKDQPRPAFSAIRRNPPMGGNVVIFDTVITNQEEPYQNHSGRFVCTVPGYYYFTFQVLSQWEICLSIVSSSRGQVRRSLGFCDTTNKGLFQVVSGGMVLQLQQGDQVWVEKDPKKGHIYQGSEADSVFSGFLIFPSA
T2 sequence (P02746 28-253, chain 2 of 3): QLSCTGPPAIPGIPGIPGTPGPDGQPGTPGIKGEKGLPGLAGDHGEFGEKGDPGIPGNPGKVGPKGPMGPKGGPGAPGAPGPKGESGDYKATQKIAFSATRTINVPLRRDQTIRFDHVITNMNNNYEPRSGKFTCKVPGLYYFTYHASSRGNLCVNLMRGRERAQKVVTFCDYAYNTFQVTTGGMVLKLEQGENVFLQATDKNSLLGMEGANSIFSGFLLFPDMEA
T2 sequence (P02747 29-245, chain 3 of 3): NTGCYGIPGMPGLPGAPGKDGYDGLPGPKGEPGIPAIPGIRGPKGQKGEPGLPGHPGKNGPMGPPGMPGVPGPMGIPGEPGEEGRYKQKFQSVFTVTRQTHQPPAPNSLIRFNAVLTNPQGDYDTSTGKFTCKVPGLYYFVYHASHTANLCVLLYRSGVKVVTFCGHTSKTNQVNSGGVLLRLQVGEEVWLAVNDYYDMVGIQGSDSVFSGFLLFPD
T1 sequence (P02745 23-245, chain 1 of 3): as the sequence (P02745 23-245, chain 1 of 3) above
T1 sequence (P02746 28-253, chain 2 of 3): as the sequence (P02746 28-253, chain 2 of 3) above
T1 sequence (P02747 29-245, chain 3 of 3): as the sequence (P02747 29-245, chain 3 of 3) above

B1: pentameric C-reactive protein (natural protein, human, UniProt P02741 19-224, looked up)
chain: QTDMSRKAFVFPKESDTSYVSLKAPLTKPLKAFTVCLHFYTELSSTRGYSIFSYATKRQDNEILIFWSKDIGYSFTVGGSEILFEVPEVTVAPVHICTSWESASGIVEFWVDGKPRVRKSLKKGYTVGAEASIILGQEQDSFGGNFEGSQSLVGDIGNVNMWDFVLSPDEINTIYLGGPFSPNVLNWRALKYEVQGEVFTKPQLWP
notes: C-reactive protein, human; five identical subunits of about 23 kDa; also called pCRP; CRP; source: bought: Calbiochem; dialysed against D-PBS with 2 mM Ca2+
On to B1, for which the binding result in assay [1] and in assay [2] was “binds” throughout.

The values above are taken from publication PMC5264208, “Transitional changes in the CRP structure lead to the exposure of proinflammatory binding sites” (Nature Communications, 2017).
